Laboratory results as given in patent US20200216536A1.
“And” between values parts separate entries of the source, which are not always exact repeats. Equal entries are not always repeated.

Assays:
canine FcRn [1] = target: T1, canine FcRn (UniProtKB-E2ROL6 [FcRn] and UniProtKB-E2RN10 [canine beta-2-microglobulin]) (canine); assay: SPR Biacore 8K, pH 5.5, Fc captured on BSA via SASA tag, FcRn 200 nM
canine FcRn [2] = target: T1, canine FcRn; assay: as above; remark: listed apart in the source
canine FcRn [3] = target: T1, canine FcRn; assay: as above; remark: listed apart in the source
canine FcRn [4] = target: T1, canine FcRn; assay: as above; remark: listed apart in the source
canine FcRn [5] = target: T1, canine FcRn; assay: SPR Biacore 8K, pH 5.5, Fc captured on BSA via SASA tag, FcRn 100-800 nM
canine FcRn [6] = target: T1, canine FcRn; assay: SPR Biacore 8K, pH 5.5, Fc captured on BSA via SASA tag, FcRn 400 nM; average of the 12 wild-type runs
canine FcRn [7] = target: T1, canine FcRn; assay: SPR Biacore 8K, pH 5.5, Fc captured on BSA via SASA tag, FcRn 200 nM; remark: listed apart in the source
canine FcRn [8] = target: T1, canine FcRn; assay: as above; remark: listed apart in the source
canine FcRn [9] = target: T1, canine FcRn; assay: as above; remark: listed apart in the source
canine FcRn [10] = target: T1, canine FcRn; assay: as above; remark: listed apart in the source

B1: wild-type canine IgG.B Fc (CH2 and CH3 domains) with SASA tag (Fc fusion, not shown: small tags and cut ends)
chain: APEMLGGPSVFIFPPKPKDTLLIARTPEVTCVVVDLDPEDPEVQISWFVDGKQMQTAKTQPREEQFNGTYRVVSVLPIGHQDWLKGKQFTCKVNNKALPSPIERTISKARGQAHQPSVYVLPPSREELSKNTVSLTCLIKDFFPPDIDVEWQSNGQQEPESKYRTTPPQLDEDGSYFLYSKLSVDKSRWQRGDTFICAVMHEALHNHYTQESLSHSPGK
For B1, the Kd (canine FcRn [1]) was 0.884 µM and 0.862 µM, the koff (canine FcRn [1]) was 0.21 s⁻¹ and 0.218 s⁻¹ and the kon (canine FcRn [1]) was 237000 M⁻¹ s⁻¹ and 253000 M⁻¹ s⁻¹. The Kd (canine FcRn [2]) was 0.955 µM and 1.31 µM, the koff (canine FcRn [2]) was 0.181 s⁻¹ and 0.209 s⁻¹ and the kon (canine FcRn [2]) was 190000 M⁻¹ s⁻¹ and 159000 M⁻¹ s⁻¹. For the same binder, the Kd (canine FcRn [3]) was 1.56 µM and 0.754 µM, the koff (canine FcRn [3]) was 0.179 s⁻¹ and 0.182 s⁻¹ and the kon (canine FcRn [3]) was 115000 M⁻¹ s⁻¹ and 242000 M⁻¹ s⁻¹. For the same binder, the Kd (canine FcRn [4]) was 0.639 µM and 0.692 µM, the koff (canine FcRn [4]) was 0.17 s⁻¹ and 0.171 s⁻¹ and the kon (canine FcRn [4]) was 267000 M⁻¹ s⁻¹ and 247000 M⁻¹ s⁻¹. It also gave a Kd (canine FcRn [5]) of 3.15 µM, a koff (canine FcRn [5]) of 0.527 s⁻¹ and a kon (canine FcRn [5]) of 168000 M⁻¹ s⁻¹. For the same binder, the Kd (canine FcRn [6]) was 0.566 µM, the Kd (canine FcRn [7]) was 0.502 µM and 0.784 µM and the koff (canine FcRn [7]) was 0.169 s⁻¹ and 0.207 s⁻¹. For the same binder, the kon (canine FcRn [7]) was 336000 M⁻¹ s⁻¹ and 264000 M⁻¹ s⁻¹, the Kd (canine FcRn [8]) was 2.05 µM and 2.99 µM and the koff (canine FcRn [8]) was 0.31 s⁻¹ and 0.315 s⁻¹. The kon (canine FcRn [8]) was 151000 M⁻¹ s⁻¹ and 105000 M⁻¹ s⁻¹, the Kd (canine FcRn [9]) was 8.99 µM and 3.11 µM and the koff (canine FcRn [9]) was 0.347 s⁻¹ and 0.354 s⁻¹. For the same binder, the kon (canine FcRn [9]) was 38700 M⁻¹ s⁻¹ and 114000 M⁻¹ s⁻¹, the Kd (canine FcRn [10]) was 1.71 µM and 2.66 µM and the koff (canine FcRn [10]) was 0.288 s⁻¹ and 0.326 s⁻¹. The kon (canine FcRn [10]) was 168000 M⁻¹ s⁻¹ and 123000 M⁻¹ s⁻¹.
